Experiment [1] has as its system human ovarian cancer cells SKOV3. The experiment is described as follows: Human ovarian cancer cells SKOV3 injected intraperitoneally in SCID mice: tumors and secondary nodules. The experiment is classed as in vivo, mouse. As to conditions: 38 days, G129R 100 ug daily, DCT 25 ug weekly. The procedure:
SCID mice (laboratory experimental animals that lack both T and B lymphocytes) were injected with one million human ovarian cancer cells SKOV3 intraperitoneally on day 1.
All mice were treated for 38 days and then sacrificed, and tumors from every experimental group were weighted.
The effect of G129R and the G129R+DCT combination on the ability of human ovarian cancer cells to metastasize was also studied.

The subject of experiment [2] is mouse ovarian cancer cells ID8. Kind of experiment: Mouse ovarian cancer cells ID8 injected intraperitoneally in SCID mice: tumors and secondary nodules. The experiment is classed as in vivo. As to conditions: 52 days, G129R 100 ug daily, DCT 25 ug weekly. The procedure: SCID mice were injected with one million mouse ovarian cancer cells ID8 intraperitoneally on day 1.
All mice were treated for 52 days and then sacrificed, and tumors from every experimental group were weighted.
The effect of G129R and the G129R+DCT combination on the ability of mouse ovarian cancer cells to metastasize was also studied.

The subject of experiment [3] is Human triple-negative breast cancer cells MDA-MB-231. The experiment is described as follows: ALDH1 activity (ALDEFLUOR fluorescent assay) in triple-negative breast cancer cells. To be noted: MDA-MB-231, G129R 10 ug/ml, three days, vs control. The experiment is classed as cell-based. The procedure:
Human triple-negative breast cancer cells MDA-MB-231 and control breast cancer cells T-47D were plated in 6 well plates at 1×10^5 cells/ml, and allowed to adhere for 24 hours in growth media followed by 2 hours of serum free media depletion. The cells were then cultured either without (control) or with prolactin (100 ng/ml) or G129R (10 ug/ml) for three days. The cells were then collected and the ALDH-1 activity (this enzyme is a marker for cancer stem cells. See Ginestier et al., Cell Stem Cell 2007 1(5): 555-567) was measured by ALDEFLUOR^R fluorescent assay (StemCell Technologies).

Experiment [4] has as its system mammary HER2+ adenocarcinomas of MMTV/neu transgenic mice. The experiment is described as follows: ALDH1 activity in tumor cells isolated from treated MMTV/neu transgenic mice. The experiment is classed as in vivo, mouse. The procedure: MMTV/neu transgenic mice carry an activated c-neu oncogene driven by a mouse mammary tumor virus (MMTV) promoter and develop mammary HER2^+ adenocarcinomas (Muller et al. 1988. Cell. 54(1):105-15). MMTV/neu transgenic mice bearing mammary tumors were treated with PBS (n=4) or G129R for 5 (n=2) or 10 (n=3) days (10 mg/kg, i.p.). The tumors were isolated at the end of treatment, digested to a single cell suspension, and ALDH1 activity levels were compared.

Experiment [5] concerns Primary mammary tumor cells isolated from MMTV/neu transgenic mouse. The experiment is described as follows: ALDH1 activity in cultured primary MMTV/neu mammary tumor cells, time course. The experiment is classed as cell-based. As to conditions: G129R 10 ug/ml. As for the experimental part: Primary mammary tumor cells were isolated from MMTV/neu transgenic mouse and cultured in the presence of G129R (10 ug/ml) or PRL (100 ng/ml) for 24, 48, 72, or 96 hrs. Specifically, tumor removed from an MMTV-neu mouse was digested to a single cell suspension and plated in 12-well plates at 1×10^5 cells/ml. Cells were allowed to adhere for 24 hours in growth media followed by 2 hours of serum-free media depletion. The cells were then either treated without (control) or with prolactin (100 ng/ml) or G129R (10 ug/ml). Cells were collected following 24, 48, 72, or 96 hours of treatment and the ALDH-1 activity was measured.

Experiment [6] has as its system lung metastases of HER2+/neu breast tumors. The experiment is described as follows: Lung metastases after removal of primary breast tumors in MMTV/neu mice. The experiment is classed as in vivo, mouse. As to conditions: 200 ug/day i.p. for more than 40 days, vs untreated control, P<0.05. As for the experimental part: Primary breast tumors were removed from MMTV/neu transgenic mice. The mice were then treated either with PBS or G129R (200 ug/day, i.p.) for more than 40 days. When the secondary tumors (recurrence) grew to a certain size, the mice were sacrificed and the lungs were excised and fixed in Bouin's fixative to observe metastasis.

Experiment [7] concerns HER2+/neu tumors implanted into female transgenic mice. The experiment is described as follows: Growth of implanted tumors in transgenic mice. To be noted: 10 mg/kg i.p. daily, 50 days; ±SEM. The experiment is classed as in vivo, mouse. As for the experimental part: In two separate experiments, tumors were isolated from female transgenic mice, sectioned into equivalent sized pieces and implanted into age-matched recipient female transgenic mice. Ten days after implantation, mice were randomized into either control (n=3-4) or G129R treated groups (n=4, 10 mg/kg, i.p. daily). The mice were then treated on a daily basis for 50 days and tumor volumes for the control and treated groups were monitored.

The test system of experiment [8] is phosphorylated Neu protein. The experiment is described as follows: Phosphorylation of Neu protein in primary and secondary tumors (western blotting). The experiment is classed as in vivo, mouse. To be noted: 200 ug per day for 5 days, vs PBS. The procedure:
MMTV/neu mice (bearing primary and secondary tumors) were treated either with PBS (control) or with 200 ug of G129R per day for 5 days. Primary and secondary tumors were removed 24 hours following the 5th treatment and processed for western blotting.
A general note: In western blotting, separated proteins are transferred to a membrane and probed.

Experiment [9] has as its system phosphorylated HER2/neu protein. Kind of experiment: Dose-dependent response of phosphorylated HER2/neu in tumors in vivo (western blotting). The arrangement: species or system mouse. To be noted: i.p. for ten days; 2.5, 5, 10, 20 mg/kg/day tested. As for the experimental part: To determine a minimal dosage of G129R required for decreasing phosphorylation of HER^+/neu in vivo, a biopsy was removed from tumors of MMTV/neu transgenic mice and was used as a self-control baseline. The mice were then treated i.p. for ten days with either PBS or G129R at the following concentrations: 50, 100, 200 or 400 ug daily (2.5 mg/kg/day, 5 mg/kg/day; 10 mg/kg/day; or 20 mg/kg/day of G129R). The tumors were then harvested and processed for western blotting. The western blots were then probed with an antibody that detects phosphorylated HER2/neu protein and an antibody against beta-tubulin as a control for gel loading and western blotting transfer.

Experiment [10] shares this test system. The experiment is described as follows: Time-dependent response of phosphorylated HER2/neu in tumors in vivo (western blot). The arrangement: species or system mouse. As to conditions: 10 mg/kg/day i.p. The procedure: To determine an optimal length of treatment with G129R, MMTV tumor-bearing mice were treated with 200 ug G129R for either five or ten days. Tumors were removed 24 hours after the last treatment and processed for western blot analysis. […] As also can be seen in FIG. 8, of 10 mice receiving a 10 day treatment of G129R (10 mg/kg/day, i.p.), tumors from 3 mice were highly responsive and virtually no phosphorylated HER2/neu was detected in these tumors, 5 mice were moderately responsive and 2 mice were nonresponsive.

Regarding `CC(=O)O[C@@]12CO[C@@H]1C[C@H](O)[C@@]1(C)C(=O)[C@H](O)C3=C(C)[C@@H](OC(=O)[C@H](O)[C@@H](NC(=O)OC(C)(C)C)c4ccccc4)C[C@@](O)([C@@H](OC(=O)c4ccccc4)[C@H]21)C3(C)C` [docetaxel, reference compound], in [1], the “number of secondary nodules (metastases) versus control” value (shortened to “number … (metastases) versus control”) is given as “suppressed the number of secondary nodules” and the “size (weight) of tumors versus control” value is “suppressed the growth of tumors”. For the same molecule, in experiment [2], the “number … (metastases) versus control” value was “suppressed the number of secondary nodules” and the “size (weight) of tumors versus control” value is “suppressed the tumor growth”.

B1: G129R: prolactin receptor antagonist: human prolactin in which glycine at position 129 is substituted with arginine (protein)
chain: LPICPGGAARCQVTLRDLFDRAVVLSHYIHNLSSEMFSEFDKRYTHGRGFITKAINSCHTSSLATPEDKEQAQQMNQKDFLSLIVSILRSWNEPLYHLVTEVRGMQEAPEAILSKAVEIEEQTKRLLERMELIVSQVHPETKENEIYPVWSGLPSLQMADEESRLSAYYNLLHCLRRDSHKIDNYLKLLKCRIIHNNNC
As for B1, the “ALDH1 activity in triple-negative breast cancer cells” value in experiment [3] is given as “significantly reduced”. Besides, the “ALDH1 activity in cancer cells isolated from treated animals” value in experiment [4] (10 mg/kg i.p. for 5 or 10 days, vs PBS) was “significantly reduced”. Besides, the “ALDH1 activity in cancer cells after ten days of treatment” value in experiment [4] (10 mg/kg i.p., ten days) is listed as “Practically no ALDH1 activity was detected”. For the same molecule, the “reduction of ALDH1 activity versus control” value in experiment [5] (96 hrs) came to 92.3%. Also, the “ALDH1 activity over the time course” value in experiment [5] (24, 48, 72, 96 hrs) is on record as “steady decrease”. The “percentage of animals with lung metastases” value in [6] is given as “significantly reduced”. In [7], the “final tumor volume smaller than control (first value of two experiments)” value was 67.1%, the “final tumor volume smaller than control (second value of two experiments)” value was determined as 71.5%, the “final tumor weight reduced versus control (first value of two experiments)” value is 61.3% and the “final tumor weight reduced versus control (second value of two experiments)” value came out at 62.5%. Moreover, the “phosphorylated Neu protein in primary tumors” value in [8] was “significant decrease”. In [8] (some phosphorylated neu still detected), the “phosphorylation of neu in secondary tumors” value is listed as “decrease”. Besides, the “lowest dosage with inhibitory effect on phosphorylation of HER+/neu” value in experiment [9] was determined as 5 mg/kg/day. In [10] (of 10 mice, 10 day treatment), the “mice highly responsive (virtually no phosphorylated HER2/neu detected)” value is 3 mice, the mice moderately responsive turned out to be 5 mice and the nonresponsive mice came out at 2 mice. In addition, in experiment [10] (of 14 mice, 5 day treatment), the “mice moderately responsive (noticeable reduction in phosphorylated HER2/neu)” value was determined as 4 mice, the “mice whose tumors showed drastic reduction in phosphorylated HER2/neu” value is given as 5 mice and the nonresponsive mice was 5 mice. In [1], the “number … (metastases) versus control” value was “decreased the number of secondary nodules” and the “size (weight) of tumors versus control” value is “decreased the size of tumors”. In [2], the “number … (metastases) versus control” value is recorded as “decreased the number of secondary nodules” and the “size (weight) of tumors versus control” value is reported as “decreased the size of tumors”.

The record behind these values is US20130231286A1, “Use of Prolactin Receptor Antagonist and Chemotherapeutic Drug for Treating Ovarian Cancer” (ONCOLIX, INC., priority 2010, published 2013).
